Test results: patent publication US20220088146A1, “Melanocortin Receptor-Specific Peptide Formulations and Methods for Gastrointestinal Tract-Specific Delivery” (Palatin Technologies, Inc., priority 2018, published 2022)
Bridge positions count the residues as written; N and C are the ends. Square brackets hold non-standard residues; d marks the D form. Nle = CCCC[C@H](N)C(=O)O; Dab = NCC[C@H](N)C(=O)O; Dap = NC[C@H](N)C(=O)O

What was measured:
[1] = biological target: human melanocortin-1 receptor (human) (UniProt Q01726); test: cell-based or functional assay
Chain of human melanocortin-1 receptor (human) (Q01726 whole entry): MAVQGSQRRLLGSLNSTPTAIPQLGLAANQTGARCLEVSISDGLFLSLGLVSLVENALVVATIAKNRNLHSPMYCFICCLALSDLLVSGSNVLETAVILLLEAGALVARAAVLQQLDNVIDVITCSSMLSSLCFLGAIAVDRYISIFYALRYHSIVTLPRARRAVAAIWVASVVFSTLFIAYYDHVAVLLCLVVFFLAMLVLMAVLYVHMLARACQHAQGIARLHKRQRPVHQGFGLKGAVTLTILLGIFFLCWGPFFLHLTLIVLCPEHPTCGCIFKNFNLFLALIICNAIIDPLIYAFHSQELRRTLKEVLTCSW

[2] = biological target: human melanocortin-1 receptor (human) (UniProt Q01726); test: [I125]-NDP-α-MSH competition, hMC1r HEK-293 membranes
[3] = biological target: human melanocortin-4 receptor (human) (UniProt P32245); test: [I125]-NDP-α-MSH competition, hMC4r HEK-293 membranes
Chain of human melanocortin-4 receptor (human) (P32245 whole entry): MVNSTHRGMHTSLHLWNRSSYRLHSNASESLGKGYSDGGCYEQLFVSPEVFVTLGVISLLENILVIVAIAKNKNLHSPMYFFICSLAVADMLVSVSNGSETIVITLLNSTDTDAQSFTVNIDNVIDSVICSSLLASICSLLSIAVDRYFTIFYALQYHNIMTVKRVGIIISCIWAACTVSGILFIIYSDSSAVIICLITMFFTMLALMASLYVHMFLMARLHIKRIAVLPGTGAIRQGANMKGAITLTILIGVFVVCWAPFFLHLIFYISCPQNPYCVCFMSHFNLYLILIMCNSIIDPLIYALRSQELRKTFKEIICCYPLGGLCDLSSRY

Binder	MC-1 EC50 (average; cAMP HBL) [1] [nM]	MC-1 Emax (average; cAMP HBL) [1] [%]	Ki [2] [nM]	Ki [3] [µM]
Ac-[Nle]DH[dF]R[Dap]W-NH2 (lactam 2-6; SMILES CCCC[C@H](NC(C)=O)C(=O)N[C@H]1CC(=O)NC[C@@H](C(=O)N[C@@H](Cc2c[nH]c3ccccc23)C(N)=O)NC(=O)[C@H](CCCNC(=N)N)NC(=O)[C@@H](Cc2ccccc2)NC(=O)[C@H](Cc2c[nH]cn2)NC1=O) [Ac-Nle-cyclo(Asp-His-D-Phe-Arg-Dap)-Trp-NH2]	0.195	88	2	1.32
Ac-[Nle]EH[dF]R[Dab]K-NH2 (lactam 2-6; SMILES CCCC[C@H](NC(C)=O)C(=O)N[C@H]1CCC(=O)NCC[C@@H](C(=O)N[C@@H](CCCCN)C(N)=O)NC(=O)[C@H](CCCNC(=N)N)NC(=O)[C@@H](Cc2ccccc2)NC(=O)[C@H](Cc2c[nH]cn2)NC1=O) [Ac-Nle-cyclo(Glu-His-D-Phe-Arg-Dab)-Lys-NH2]	0.175	91	2	7.38
Ac-[Nle]EP[dF]R[Dab]W-NH2 (lactam 2-6; SMILES CCCC[C@H](NC(C)=O)C(=O)N[C@H]1CCC(=O)NCC[C@@H](C(=O)N[C@@H](Cc2c[nH]c3ccccc23)C(N)=O)NC(=O)[C@H](CCCNC(=N)N)NC(=O)[C@@H](Cc2ccccc2)NC(=O)[C@@H]2CCCN2C1=O) [Ac-Nle-cyclo(Glu-Pro-D-Phe-Arg-Dab)-Trp-NH2]	0.18	97	3	0.185

The next lines start with the values.

MC-1 EC50 (average; cAMP HBL) [1] [nM]	MC-1 Emax (average; cAMP HBL) [1] [%]	Ki [2] [nM]	Ki [3] [µM]	Binder
0.115	72	0.8	10	Ac-[Nle]EH[dF]A[Dab]W-NH2 (lactam 2-6; SMILES CCCC[C@H](NC(C)=O)C(=O)N[C@H]1CCC(=O)NCC[C@@H](C(=O)N[C@@H](Cc2c[nH]c3ccccc23)C(N)=O)NC(=O)[C@H](C)NC(=O)[C@@H](Cc2ccccc2)NC(=O)[C@H](Cc2c[nH]cn2)NC1=O) [Ac-Nle-cyclo(Glu-His-D-Phe-Ala-Dab)-Trp-NH2]
4	59	9	10	Ac-[Nle]EH[dF]G[Dab]W-NH2 (lactam 2-6; SMILES CCCC[C@H](NC(C)=O)C(=O)N[C@H]1CCC(=O)NCC[C@@H](C(=O)N[C@@H](Cc2c[nH]c3ccccc23)C(N)=O)NC(=O)CNC(=O)[C@@H](Cc2ccccc2)NC(=O)[C@H](Cc2c[nH]cn2)NC1=O) [Ac-Nle-cyclo(Glu-His-D-Phe-Gly-Dab)-Trp-NH2]
0.08	97	2	7.48	Ac-[Nle]EH[dF]R[Dab]A-NH2 (lactam 2-6) [Ac-Nle-cyclo(Glu-His-D-Phe-Arg-Dab)-Ala-NH2]
